These results are taken from the supplement of paper PMC7125110.

± gives the standard error. For part of these data: This sample holds only a part of the variants without activity.

First the molecules themselves.
B1: glmS ribozyme (parent)
chain: AUAAAAGCGCCAGAACUACAGAAAUGUAGUUGACGAGGAGGAGGUUUAUCGAAUUUUCGGCGGAUGCCUCCAAA

What all share (settings): with glucosamine-6-phosphate
The variants in series [1] derive from B1. The experiment in a line: kcat; higher = faster cleavage; RNA array. The procedure, abridged:
(§1)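 Tiles bearing barcoded ribozyme variants, transcribed in situ by E. coli RNA polymerase on sequenced MiSeq chips, were imaged over ~14 h at 37 °C using a hybridised Cy3 probe. Glucosamine-6-phosphate was supplied at 40 μM to 10 mM in HEPES/KCl/Mg(OAc)2 buffer. kobs came from one- or two-exponential decay fits to normalised per-tile medians, and weighted Michaelis–Menten fits then provided kcat and KM.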

Series [2] covers variants of B1. Kind of series: KM; higher = weaker cofactor use; RNA array. The procedure, abridged: as §1
Series [3] covers variants of B1. Kind of series: self-cleavage kobs at 40 uM GlcN6P; higher = faster cleavage; RNA array. The procedure, abridged: as §1
Series [4] covers variants of B1. The experiment in a line: self-cleavage kobs at 160 uM GlcN6P; higher = faster cleavage; RNA array. A digest of the protocol: as §1
Variants of B1 are the subject of series [5]. Kind of series: self-cleavage kobs at 640 uM GlcN6P; higher = faster cleavage; RNA array. A digest of the protocol: as §1
Series [6] covers variants of B1. The experiment in a line: self-cleavage kobs at 2500 uM GlcN6P; higher = faster cleavage; RNA array. A digest of the protocol: as §1
In series [7] the parent is B1. Kind of series: self-cleavage kobs at 10000 uM GlcN6P; higher = faster cleavage; RNA array. The procedure, abridged: as §1

For orientation: kcat means the number of substrate molecules converted per active site and unit of time at saturation. In general, KM refers to the concentration of substrate that gives half-maximal velocity. For the variant A14C, the kcat with glucosamine-6-phosphate [1] is 0.0129 ± 0.0023 s⁻¹. Further, the KM with glucosamine-6-phosphate [2] was determined as 3460 ± 740 µM. Moreover, the “self-cleavage kobs at 40 uM GlcN6P” value in the series with glucosamine-6-phosphate [3] came out at 0.000163 ± 2.7e-06 s⁻¹. In addition, the “self-cleavage kobs at 160 uM GlcN6P” value with glucosamine-6-phosphate [4] stood at 0.000466 ± 1.5e-05 s⁻¹. The “self-cleavage kobs at 640 uM GlcN6P” value with glucosamine-6-phosphate [5] amounted to 0.00185 ± 6.7e-05 s⁻¹. In addition, the “self-cleavage kobs at 2500 uM GlcN6P” value with glucosamine-6-phosphate [6] was 0.00541 ± 0.00017 s⁻¹. In addition, the “self-cleavage kobs at 10000 uM GlcN6P” value with glucosamine-6-phosphate [7] was 0.00971 ± 0.00024 s⁻¹.
For G9C G60A, the kcat in the series with glucosamine-6-phosphate [1] is less than 1e-05 s⁻¹. Further, the “self-cleavage kobs at 640 uM GlcN6P” value in the series with glucosamine-6-phosphate [5] is less than 1e-05 s⁻¹.
In the case of C16U A36C, in the series with glucosamine-6-phosphate [1], the kcat is less than 1e-05 s⁻¹. Moreover, the KM with glucosamine-6-phosphate [2] turned out to be 28.4 ± 13 µM. The “self-cleavage kobs at 40 uM GlcN6P” value with glucosamine-6-phosphate [3] is less than 1e-05 s⁻¹. For the same variant, in the series with glucosamine-6-phosphate [5], the “self-cleavage kobs at 640 uM GlcN6P” value was less than 1e-05 s⁻¹. Moreover, in the series with glucosamine-6-phosphate [6], the “self-cleavage kobs at 2500 uM GlcN6P” value was less than 1e-05 s⁻¹.
For G13A U69A, the kcat with glucosamine-6-phosphate [1] turned out to be 4.03e-05 ± 1.6e-05 s⁻¹. Besides, the “self-cleavage kobs at 2500 uM GlcN6P” value in the series with glucosamine-6-phosphate [6] is 6.18e-05 ± 1.2e-05 s⁻¹.
As for C16U U47G A52U, the kcat with glucosamine-6-phosphate [1] turned out to be 0.000133 ± 8.3e-06 s⁻¹. Moreover, the KM in the series with glucosamine-6-phosphate [2] was determined as 1230 ± 200 µM. Further, the “self-cleavage kobs at 640 uM GlcN6P” value with glucosamine-6-phosphate [5] worked out at 4.73e-05 ± 1.3e-05 s⁻¹. For the same variant, the “self-cleavage kobs at 2500 uM GlcN6P” value in the series with glucosamine-6-phosphate [6] is 8.23e-05 ± 2.3e-05 s⁻¹. Further, in the series with glucosamine-6-phosphate [7], the “self-cleavage kobs at 10000 uM GlcN6P” value amounted to 0.000122 ± 2.5e-05 s⁻¹.
U55C A64U: the kcat with glucosamine-6-phosphate [1] came to 5.99e-05 ± 7.9e-06 s⁻¹. In the series with glucosamine-6-phosphate [6], the “self-cleavage kobs at 2500 uM GlcN6P” value is 4.69e-05 ± 8e-06 s⁻¹. Moreover, in the series with glucosamine-6-phosphate [7], the “self-cleavage kobs at 10000 uM GlcN6P” value amounted to 5.2e-05 ± 5.7e-06 s⁻¹.
Turning to U31A U46A, in the series with glucosamine-6-phosphate [1], the kcat was found to be 0.00237 ± 0.00062 s⁻¹. Also, the KM in the series with glucosamine-6-phosphate [2] was found to be 5680 ± 2600 µM. Further, the “self-cleavage kobs at 40 uM GlcN6P” value in the series with glucosamine-6-phosphate [3] amounted to 3.33e-05 ± 1.3e-05 s⁻¹. In addition, the “self-cleavage kobs at 160 uM GlcN6P” value with glucosamine-6-phosphate [4] came to 4.27e-05 ± 1.9e-05 s⁻¹. The “self-cleavage kobs at 640 uM GlcN6P” value with glucosamine-6-phosphate [5] was 0.000292 ± 9.4e-05 s⁻¹. Besides, the “self-cleavage kobs at 2500 uM GlcN6P” value in the series with glucosamine-6-phosphate [6] was found to be 0.000857 ± 0.0002 s⁻¹. In the series with glucosamine-6-phosphate [7], the “self-cleavage kobs at 10000 uM GlcN6P” value was determined as 0.00149 ± 0.00018 s⁻¹.
C16A U47A: the kcat with glucosamine-6-phosphate [1] stood at 0.000851 ± 0.00014 s⁻¹. The KM with glucosamine-6-phosphate [2] stood at 1150 ± 410 µM. For the same variant, the “self-cleavage kobs at 160 uM GlcN6P” value with glucosamine-6-phosphate [4] worked out at 9.46e-05 ± 2.7e-05 s⁻¹. The “self-cleavage kobs at 640 uM GlcN6P” value with glucosamine-6-phosphate [5] was 0.000544 ± 0.00013 s⁻¹. In the series with glucosamine-6-phosphate [6], the “self-cleavage kobs at 2500 uM GlcN6P” value was 0.000553 ± 0.00011 s⁻¹. The “self-cleavage kobs at 10000 uM GlcN6P” value in the series with glucosamine-6-phosphate [7] was 0.000758 ± 0.00011 s⁻¹.
With G40U G66U, the kcat with glucosamine-6-phosphate [1] came out at 6.98e-05 ± 5.6e-06 s⁻¹. In addition, in the series with glucosamine-6-phosphate [2], the KM stood at 2030 ± 510 µM. In addition, in the series with glucosamine-6-phosphate [5], the “self-cleavage kobs at 640 uM GlcN6P” value stood at 2.07e-05 ± 8.1e-06 s⁻¹. Further, the “self-cleavage kobs at 2500 uM GlcN6P” value with glucosamine-6-phosphate [6] was 3.54e-05 ± 7.3e-06 s⁻¹. For the same variant, the “self-cleavage kobs at 10000 uM GlcN6P” value with glucosamine-6-phosphate [7] stood at 5.9e-05 ± 7.2e-06 s⁻¹.
On to U31A C70G, for which the kcat with glucosamine-6-phosphate [1] was found to be 0.000226 ± 2.5e-05 s⁻¹. Moreover, the Michaelis constant (KM) in the series with glucosamine-6-phosphate [2] was found to be 570 ± 170 µM. The “self-cleavage kobs at 160 uM GlcN6P” value in the series with glucosamine-6-phosphate [4] is 6.6e-05 ± 1.6e-05 s⁻¹. For the same variant, the “self-cleavage kobs at 640 uM GlcN6P” value with glucosamine-6-phosphate [5] was 0.000116 ± 1.3e-05 s⁻¹. For the same variant, the “self-cleavage kobs at 2500 uM GlcN6P” value with glucosamine-6-phosphate [6] was 0.000169 ± 2.4e-05 s⁻¹. Also, the “self-cleavage kobs at 10000 uM GlcN6P” value with glucosamine-6-phosphate [7] is 0.000235 ± 3.2e-05 s⁻¹.
Consider G13C U56A, for which the kcat in the series with glucosamine-6-phosphate [1] was determined as 0.000106 ± 6.7e-06 s⁻¹. For the same variant, in the series with glucosamine-6-phosphate [2], the KM was determined as 3410 ± 530 µM. Moreover, the “self-cleavage kobs at 2500 uM GlcN6P” value with glucosamine-6-phosphate [6] was found to be 4.38e-05 ± 7.3e-06 s⁻¹. Also, the “self-cleavage kobs at 10000 uM GlcN6P” value in the series with glucosamine-6-phosphate [7] turned out to be 7.93e-05 ± 9.5e-06 s⁻¹.
Take G66A C68A: the kcat with glucosamine-6-phosphate [1] is 0.000285 ± 7.9e-05 s⁻¹. Moreover, the “self-cleavage kobs at 640 uM GlcN6P” value with glucosamine-6-phosphate [5] stood at 0.000138 ± 2.7e-05 s⁻¹. In the series with glucosamine-6-phosphate [6], the “self-cleavage kobs at 2500 uM GlcN6P” value was 0.000313 ± 5.4e-05 s⁻¹. The “self-cleavage kobs at 10000 uM GlcN6P” value with glucosamine-6-phosphate [7] is 0.000216 ± 4.2e-05 s⁻¹.
As for A39G U45C, in the series with glucosamine-6-phosphate [1], the kcat came out at 0.0102 ± 0.0019 s⁻¹. Moreover, the KM in the series with glucosamine-6-phosphate [2] was 3810 ± 980 µM. For the same variant, in the series with glucosamine-6-phosphate [3], the “self-cleavage kobs at 40 uM GlcN6P” value was 0.00012 ± 2.4e-05 s⁻¹. Moreover, the “self-cleavage kobs at 640 uM GlcN6P” value in the series with glucosamine-6-phosphate [5] was 0.00126 ± 0.00034 s⁻¹. Further, the “self-cleavage kobs at 2500 uM GlcN6P” value in the series with glucosamine-6-phosphate [6] was determined as 0.00381 ± 0.0011 s⁻¹. For the same variant, the “self-cleavage kobs at 10000 uM GlcN6P” value with glucosamine-6-phosphate [7] came out at 0.00774 ± 0.0016 s⁻¹.
As to U46G A53C, the kcat in the series with glucosamine-6-phosphate [1] is 0.00122 ± 6.4e-05 s⁻¹. For the same variant, the Michaelis-Menten constant (KM) with glucosamine-6-phosphate [2] came to 2790 ± 250 µM. Also, the “self-cleavage kobs at 160 uM GlcN6P” value with glucosamine-6-phosphate [4] was determined as 5.96e-05 ± 1.8e-05 s⁻¹. In addition, in the series with glucosamine-6-phosphate [5], the “self-cleavage kobs at 640 uM GlcN6P” value turned out to be 0.000231 ± 4.3e-05 s⁻¹. Also, in the series with glucosamine-6-phosphate [6], the “self-cleavage kobs at 2500 uM GlcN6P” value came to 0.000609 ± 9.9e-05 s⁻¹. In the series with glucosamine-6-phosphate [7], the “self-cleavage kobs at 10000 uM GlcN6P” value came out at 0.000938 ± 0.00012 s⁻¹.
Take C16G G37A: the kcat with glucosamine-6-phosphate [1] is 0.000832 ± 0.00041 s⁻¹. The “self-cleavage kobs at 640 uM GlcN6P” value with glucosamine-6-phosphate [5] turned out to be 3.76e-05 ± 1.2e-05 s⁻¹. Further, in the series with glucosamine-6-phosphate [6], the “self-cleavage kobs at 2500 uM GlcN6P” value came out at 0.000292 ± 6.6e-05 s⁻¹. The “self-cleavage kobs at 10000 uM GlcN6P” value with glucosamine-6-phosphate [7] amounted to 0.000396 ± 4.9e-05 s⁻¹.
